Assay results from the supplement of paper PMC7877785.
± gives the uncertainty stated by the source.

Test: self-splicing fitness, log relative to wild type (ln ratio); higher = more splicing; Tetrahymena group I intron in knt gene, E. coli kanamycin selection, DiMSum; sequences stand for … in CUCUCU…GGAGGGAAAAGUUAUCAGGCAUGCACCUGGUAGCUAGUCUUUAAACCAAUAGAUUGCAUCGGUUUAAAAGGCAAGACCGUCAAAUUGCGGGAAAGGGGUCAACAGCCGUUCAGUACCAAGUCUCAGGGGAAACUUUGAGAUGGCCUUGCAAAGGGUAUGGUAAUAAGCUGACGGACAUGGUCCUAACCACGCAGCCAAGUCCUAAGUCAACAGAUCUUCUGUUGAUAUGGAUGCAGUUCACAGACUAAAUGUCGGUCGGGGAAGAUGUAUUCUUCUCAUAAGAUAUAGUCGGACCUCUCCUUAAUGGGAGCUAGCGGAUGAAGUGAUGCAACACUGGAGCCGCUGGGAACUAAUUUGUAUGCGAAAGUAUAUUGAUUAGUUUUGGAGUACUCGUGGUCG
Procedure, shortened: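 Pooled colonies went to amplicon sequencing on an Illumina HiSeq 2500 after six replicate transformations. The plates were LB agar with 100 μg/mL carbenicillin, 50 μM IPTG and 0.2% rhamnose, with or without 25 μg/mL kanamycin, incubated overnight at 37°C or 30°C. The E. coli BL21(DE3) library had all eight P1ex-region intron nucleotides randomised, the intron placed in the knt kanamycin-resistance gene on pET-22b(+). DiMSum fitness is the error-weighted combination of replicate fold changes, kanamycin against none, normalised to wild type.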

## ACGGAGCAAUAUUACGUUUA
30 °C
  self-splicing fitness (ln): -3.14 ± 0.2
37 °C
  self-splicing fitness (ln): -2.68 ± 0.21

## ACGGAGCAAUAUUACGUUUU
37 °C
  self-splicing fitness (ln): -3.08 ± 0.2

## ACGUAGCAAUAUUACGAAAC
30 °C
  self-splicing fitness (ln): -2.02 ± 0.45
37 °C
  self-splicing fitness (ln): -2.26 ± 0.4

## ACGUAGCAAUAUUACGACAG
30 °C
  self-splicing fitness (ln): -2.56 ± 0.13
37 °C
  self-splicing fitness (ln): -0.828 ± 0.13

## ACGUAGCAAUAUUACGACUG
30 °C
  self-splicing fitness (ln): -1.78 ± 0.13
37 °C
  self-splicing fitness (ln): -0.836 ± 0.15

## ACGUAGCAAUAUUACGAUUC
30 °C
  self-splicing fitness (ln): -2.39 ± 0.11
37 °C
  self-splicing fitness (ln): -2.41 ± 0.21

## ACGUAGCAAUAUUACGCAGA
30 °C
  self-splicing fitness (ln): -3.08 ± 0.27
37 °C
  self-splicing fitness (ln): -2.48 ± 0.18

## ACGUAGCAAUAUUACGCCAC
30 °C
  self-splicing fitness (ln): -4.5 ± 0.39
37 °C
  self-splicing fitness (ln): -2.54 ± 0.44

## ACGUAGCAAUAUUACGCCCA
30 °C
  self-splicing fitness (ln): -0.614 ± 0.12
37 °C
  self-splicing fitness (ln): -0.952 ± 0.14

## ACGUAGCAAUAUUACGCCCU
30 °C
  self-splicing fitness (ln): -0.282 ± 0.11
37 °C
  self-splicing fitness (ln): -0.245 ± 0.095

## ACGUAGCAAUAUUACGCGGG
30 °C
  self-splicing fitness (ln): -2.32 ± 0.12
37 °C
  self-splicing fitness (ln): -0.863 ± 0.11

## ACGUAGCAAUAUUACGCUGA
30 °C
  self-splicing fitness (ln): -1.81 ± 0.089
37 °C
  self-splicing fitness (ln): -0.483 ± 0.085

## ACGUAGCAAUAUUACGCUGC
30 °C
  self-splicing fitness (ln): -3.09 ± 0.34
37 °C
  self-splicing fitness (ln): -1.44 ± 0.38

## ACGUAGCAAUAUUACGGCCA
30 °C
  self-splicing fitness (ln): 0.73 ± 0.19
37 °C
  self-splicing fitness (ln): 0.143 ± 0.18

## ACGUAGCAAUAUUACGGCGC
30 °C
  self-splicing fitness (ln): -1.11 ± 0.083
37 °C
  self-splicing fitness (ln): -0.695 ± 0.098

## ACGUAGCAAUAUUACGGCUU
30 °C
  self-splicing fitness (ln): 0.0669 ± 0.089
37 °C
  self-splicing fitness (ln): 0.194 ± 0.11

## ACGUAGCAAUAUUACGGUAC
30 °C
  self-splicing fitness (ln): -3.46 ± 0.18
37 °C
  self-splicing fitness (ln): -2.57 ± 0.3

## ACGUAGCAAUAUUACGGUCC
30 °C
  self-splicing fitness (ln): -1.64 ± 0.15
37 °C
  self-splicing fitness (ln): -0.357 ± 0.15

## ACGUAGCAAUAUUACGUAAC
30 °C
  self-splicing fitness (ln): -3.5 ± 0.37
37 °C
  self-splicing fitness (ln): -2.46 ± 0.48

## ACGUAGCAAUAUUACGUACA
30 °C
  self-splicing fitness (ln): -2.02 ± 0.25
37 °C
  self-splicing fitness (ln): -0.998 ± 0.22

## ACGUAGCAAUAUUACGUAGU
30 °C
  self-splicing fitness (ln): -3.78 ± 0.23
37 °C
  self-splicing fitness (ln): -1.26 ± 0.16

## ACGUAGCAAUAUUACGUAUC
30 °C
  self-splicing fitness (ln): -3.45 ± 0.24
37 °C
  self-splicing fitness (ln): -2.89 ± 0.26

## ACGUAGCAAUAUUACGUGAA
30 °C
  self-splicing fitness (ln): -3.92 ± 0.23
37 °C
  self-splicing fitness (ln): -1.82 ± 0.17

## ACGUAGCAAUAUUACGUGAG
30 °C
  self-splicing fitness (ln): -3.75 ± 0.17
37 °C
  self-splicing fitness (ln): -2.55 ± 0.14

## ACGUAGCAAUAUUACGUGUA
30 °C
  self-splicing fitness (ln): -2.51 ± 0.14
37 °C
  self-splicing fitness (ln): -2.2 ± 0.14

## ACGUAGCAAUAUUACGUGUC
30 °C
  self-splicing fitness (ln): -3.68 ± 0.32
37 °C
  self-splicing fitness (ln): -2.48 ± 0.37

## ACGUAGCAAUAUUACGUUGA
30 °C
  self-splicing fitness (ln): -3.4 ± 0.29
37 °C
  self-splicing fitness (ln): -2.78 ± 0.28

## ACGUAGCAAUAUUACGUUGG
30 °C
  self-splicing fitness (ln): -4.55 ± 0.31
37 °C
  self-splicing fitness (ln): -2.85 ± 0.25

## ACUAAGCAAUAUUACGAACG
30 °C
  self-splicing fitness (ln): -1.1 ± 0.1
37 °C
  self-splicing fitness (ln): -0.438 ± 0.15

## ACUAAGCAAUAUUACGAAUU
30 °C
  self-splicing fitness (ln): -2.52 ± 0.096
37 °C
  self-splicing fitness (ln): -0.972 ± 0.089

## ACUAAGCAAUAUUACGACCA
30 °C
  self-splicing fitness (ln): -0.124 ± 0.23
37 °C
  self-splicing fitness (ln): 0.571 ± 0.2

## ACUAAGCAAUAUUACGACGA
30 °C
  self-splicing fitness (ln): 0.0648 ± 0.13
37 °C
  self-splicing fitness (ln): 0.181 ± 0.13

## ACUAAGCAAUAUUACGAGGU
30 °C
  self-splicing fitness (ln): -3 ± 0.14
37 °C
  self-splicing fitness (ln): -3.37 ± 0.25

## ACUAAGCAAUAUUACGAUAA
30 °C
  self-splicing fitness (ln): -1.94 ± 0.17
37 °C
  self-splicing fitness (ln): -0.57 ± 0.17

## ACUAAGCAAUAUUACGAUAU
30 °C
  self-splicing fitness (ln): -1.39 ± 0.12
37 °C
  self-splicing fitness (ln): -2.28 ± 0.16

## ACUAAGCAAUAUUACGCAUG
30 °C
  self-splicing fitness (ln): -2.31 ± 0.091
37 °C
  self-splicing fitness (ln): -0.766 ± 0.091

## ACUAAGCAAUAUUACGCCAG
30 °C
  self-splicing fitness (ln): -0.955 ± 0.14
37 °C
  self-splicing fitness (ln): -0.843 ± 0.2

## ACUAAGCAAUAUUACGCCCC
30 °C
  self-splicing fitness (ln): -0.566 ± 0.13
37 °C
  self-splicing fitness (ln): 0.127 ± 0.17

## ACUAAGCAAUAUUACGGAAG
30 °C
  self-splicing fitness (ln): -2.59 ± 0.13
37 °C
  self-splicing fitness (ln): -1.55 ± 0.15

## ACUAAGCAAUAUUACGGACA
30 °C
  self-splicing fitness (ln): -0.625 ± 0.094
37 °C
  self-splicing fitness (ln): -0.362 ± 0.12

## ACUAAGCAAUAUUACGGGAC
30 °C
  self-splicing fitness (ln): -2.94 ± 0.14
37 °C
  self-splicing fitness (ln): -0.635 ± 0.12

## ACUAAGCAAUAUUACGGGGC
30 °C
  self-splicing fitness (ln): -4.09 ± 0.42
37 °C
  self-splicing fitness (ln): -2.79 ± 0.24
